This experiment deals with T1, TNFR1 on MRC-5 fibroblasts (UniProt P19438 30-455, limits assumed).
T1 sequence (looked up): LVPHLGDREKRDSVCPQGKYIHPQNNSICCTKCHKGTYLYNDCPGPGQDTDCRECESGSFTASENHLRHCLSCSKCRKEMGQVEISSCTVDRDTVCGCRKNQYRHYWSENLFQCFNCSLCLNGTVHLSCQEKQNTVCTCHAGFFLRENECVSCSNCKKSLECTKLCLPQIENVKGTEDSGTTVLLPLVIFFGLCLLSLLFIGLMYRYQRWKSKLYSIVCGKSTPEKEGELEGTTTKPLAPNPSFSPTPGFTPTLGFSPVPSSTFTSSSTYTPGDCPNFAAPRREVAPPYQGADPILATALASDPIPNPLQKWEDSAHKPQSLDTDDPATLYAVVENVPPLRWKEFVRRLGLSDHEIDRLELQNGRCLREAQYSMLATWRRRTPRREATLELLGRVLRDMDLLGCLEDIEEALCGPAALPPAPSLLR
Briefly: cell-based or functional assay.

Substitutions are numbered along the chain they refer to.

B1: DOM1h-131-203 (other)
VH: EVQLWESGGGLVQPGGSLRLSCAASGFTFAHETMVWVRQAPGKGLEWVSHIPPDGQDPFYADSVKGRFTISRDNSKNTLYLQMNSLRAEDTAVYYCALLPKRGPWIDYWGQGTLVTVSS
On to B1, for which the “ND50, MRC-5 cell-based assay” value worked out at 2.28 nM.

B2: DOM1h-131-204 (other)
VH: B1 VH with W5S, K101N, I106F
As to B2, the “ND50, MRC-5 cell-based assay” value amounted to 1.89 nM.

For the origin of these results see US20100247515A1 (DOMANTIS, published 2010).
